Experimental data from patent publication US20230365956A1.

What was measured:
[1] = biological target: SARS-CoV-2 RBD, wild type (Sino Biological) (SARS-CoV-2) (UniProt P0DTC2); test: BLI, affinity format: response at highest analyte concentration
[2] = biological target: SARS-CoV-2 RBD, wild type (Sino Biological) (SARS-CoV-2) (UniProt P0DTC2); test: BLI, avidity format: response at highest analyte concentration
[3] = biological target: SARS-CoV-2 RBD, wild type (Sino Biological) (SARS-CoV-2) (UniProt P0DTC2); test: BLI, avidity format: biotinylated RBD on SA sensor, binder in solution
[4] = biological target: SARS-CoV-2 RBD, wild type (Sino Biological) (SARS-CoV-2) (UniProt P0DTC2); test: BLI, affinity format: binder on AHC sensor, RBD in solution

Substance: Cilgavimab (antibody)
- Response [1]: 0.397 nm shift
- Response [2]: 0.64 nm shift
- Kd [3]: 0.21 nM
- koff [3]: 6.53e-05 s⁻¹
- kon [3]: 312000 M⁻¹ s⁻¹
- Kd [4]: 3.98 nM
- koff [4]: 0.00172 s⁻¹
- kon [4]: 434000 M⁻¹ s⁻¹
